In the nanobody polyreactivity screen of Harvey et al. (2022):

Experiment: yeast display, Sf9 membrane polyspecificity reagent, FACS + sequencing; frameworks hold sequencing errors
How it was run: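 A nanobody's polyreactivity label depends on the gate it was sorted from. Yeast display cells were stained with 10% biotinylated, detergent-solubilized Sf9 membrane reagent for 1 hour at 4 °C, enriched on streptavidin microbeads and sorted by FACS. The low and high (top ~1%) gates were set on anti-HA fluorescence for expression and streptavidin fluorescence for reagent binding.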

Row | Sequence | polyreactivity (PSR sort gate)
1 | QVQLVESGGGLVQAGGSLRLSCAASGFIFSRYVMGWYRQAPGKEREFVAAISSSGGSTYYADSVKGRFTISRDNAKNTVYLQMNSLKPEDTAVYYCATRLGRYYRVGFDYWGQGNQVTVSS | high polyreactivity
2 | QVQLVESGGGLVQAGGSLRLSCAASGIIFRYYAMGWYRQAPGKERELVAAISVSGGSTYDADSVKGRFTISRDNAKNTVYLQMNSLKPEDTAVYYCAARTRDFGYWGQGTQVTVSS | high polyreactivity
3 | QVQLVESGGGLLQAGGSLRLSCAASGFSFLCYAMGWYRQEPRKERELVASITYGGDSTYYADSVKGRFTISRDNAKNTVYLQMNSLKPEDTAGYYCNARPSYWWGGRLYGYWGQGTQVTVSS | high polyreactivity
4 | QVQLVESGGGLVQAGGSLRLSCAASGSNFRGYTMGWYRQAPGKERELVANISTSVGRTYYADSVKGRFTISRDNAKNTVFLQMNSLKPEDTAVYYCNARRAYRWKPDTGSAGMDYWGQGTQVTVSS | high polyreactivity
5 | QVQLVESGGGLVQAGGSLRLSCAASGFTFKKNAMGWYRQATGKERELVAAIRSGTSTKYADSVKGRFTISRDNAKNTVYLQMNSLKPEDTAVYYCAAEEPEYLATWRNRRYDYWGQGTQVTVSS | low polyreactivity
6 | QVQLVESWGGLVQAGGSLRLSCAASGSIFYTNVMGWYRQAPGKERELVARIDSGGSTNYADSVKGRFTISRDNAKNTVYLQMNSLKPEDTAVYYCAADWYIYDYWGQGTQVTVSS | low polyreactivity
7 | QVQLVESGGGLVQAGGSLRLRCAASGLMFYDNMGCYRQAPGKERELVAAISSSGGSTSYADSVKGRFTISRDNAKNTVYLQMNSLKPEDTAVYYCAAKWSLVRDCPKYDYWGQGTQVTVSS | low polyreactivity
8 | QVQLVESGGGLVQAGGSLRLSCAASGRIFIDNAMGWYRQAPGKERELVAAISWTGGRTYYADSVKGRFTISRDNAKKTVYLQMNSLKPEDPAVYYCAAKQYTRFGYYYWGQGSQVTVSS | high polyreactivity
9 | QVLLQESGGGLVQAGGSLRLSCAASGSIFLIYTMGWYRHAPVKEREFVAGITLGTTTYNADSVKGRFTISRDNVKNTVYLKMNILKPEDTEVYYCAVAVGHYTEFWYWGQGTQVTMSS | high polyreactivity
10 | QVQLVESGGGLVQAGGSLRLSCAASGRIIYYAMGRYRQAPGKERELVAAITRNGGTYADSVKGRFTISRDNSKNTVYLPMISLKAEDSAVYYCNADPDFGDDYWGQGTQVTVSS | low polyreactivity
11 | QVQLVESGGGLVQAGGSLRLSCAASGSIFTPYAMGWYRQAPGKEREFVADIDDSGGGTYADSVKGRFTISRDNAKNTVYLQMNSLKPEDTAVYYCNADTGIWDYRFVDRDYWGQGTQVTVSW | low polyreactivity
12 | QVQLVESGGGLVQAGGSLRLSCAASGSTFYTYAMGWYRQAPGKERELVAAISWSGGSTYYADSVKGRFTISRDNAKNTVYLQMNSLKPEDTAVYYCAADRPYAGRYWKGYHSALYDYWGQGTQVTVSS | low polyreactivity
13 | QVQLVESGGGLVQAGGSLRLSCAASGFTFAYNAMGWYRQAPGKERELVAAISSSGGRTYYADSVKGRFTISRDNAKNTVYLQMNSLKPEDTAVYDCATRPKVAYEYDYWGQGTQVTVSS | high polyreactivity
14 | QVQIVESGGGLVQAGGSLSLSCAASGSILDQYAMGWYRQAPGKERELVAAITAIGDSTYYADSLKGRFTISRDNAKYTVYLQMYSLKPEVTAVYYCAGTYVGSDGGDYWGQGTQVTVAS | low polyreactivity
15 | QVQLVESGGGLVQAGGSLRLSCAASGSTFDFNAMGWYRQAPGKERELVAAITYSGGSTYYADSVKGRFTISRDNAKNTVYLQMNSLKPVDTAVYYCAAEDVYPGSIDMDYWGQGTQVTVSS | low polyreactivity
16 | QVQLVESGGGLVQPGGSLRLSCAASGRIFYYYAMGWYRQAPGKERELVAAITWNGTSTYYADSVKGRFTISRDNAKNTVYLQMNSLKPEDTAVYYCAKSLRAYRHVIYGKPFYSWGQGTQVTVSS | low polyreactivity

Row | Sequence | polyreactivity (PSR sort gate)
17 | QVQLVESGGGLVQAGGSLRLSCAASGRTSWRYAMGWYRQAPGKERELVAAINRGGSTYYADSVMGRFTISRDNAKNTVYLQMNSLKPEDTAVYYFAVDTPLVYYHQQAYVAGEYWGQGTQVTVSS | low polyreactivity
18 | QVQLVESGGGLVQAGGSLRLSCAASGFTFAYYAMGWYRQAPGKERELVASISYNGGITNYADSVKGRFTISRDNAKNTVYLQMNSLKPEDTAVYYCAAGVFFFTFDYWGQGTQVTVSS | low polyreactivity
19 | QVQLVESGGGLVQAGGSLRLSCAASGRTLIAYAMGWYRQAPGKEREFVAAIRADDGRTYYADSVKGRFTISRDNAKNTVYLQMNSLKPEDTAVYYCATKADKRYGFGYWGQGTQVTVSS | high polyreactivity
20 | QVQLVESGVGLVQARGSLRLSCASSGSIFLVYAMGWYRQAPGKESELVAAISRSGRTYADSVKGRFTISRDNAKNTVYLQMNSLKPVDTAVYYCAAVTKRRFEGDYWGQGTQVTVSS | high polyreactivity
21 | QVQLVESGGGLVQAGGSLRLSCAASGFIFGVYAMGWYRQAPGKEREFVAAISWTGGSTSYADSVKGRFTISRDNAKNTVYLQMNSLKPEDTAVYYCARRRSYKRRFDYWGQGTQVTVSS | low polyreactivity
22 | QVQLVESGGGLVQAGGSLRLICAASGSTFQLTAMGWYIQAPGTEREFVASITDSGGRTYYADSVKGRFTISRDNANNTVYLQMNSLKPVDTAVYYCNTAGAAERRRAYDHDYWGQGTQVTVSS | high polyreactivity
23 | QVQLVESGGGLVQAGGSLRLSCADSGRIFNPYAMGWYRQAPGKERELVAGISWGGGSTRYADSVKGRFTISRDNAKNTVYLQMNSLKPVDTAVYYCNSGSYYKRFDYWGKGTQVTVSS | high polyreactivity
24 | QVQLVESGGGLVQAGGSLRLSCAASGRIFNRYAMGWYRQAPGKERELVAAITTSADSTYADSVKGRFTISRDNAKNTVYLQMNSLKPEDTAVYYCNVASRQGSTYDYWGQGTQVTVSS | high polyreactivity
25 | QVQLVESGGGLVQAGGSLRLSCAASGSTFYVYAMGWYRQAPGKERELVAAIDSGDSTNYADSVKGRFTISRDNAKNTVYLQMNSLKPEDTAVYYCAADRTVYPFNYWGQGTQVTVSS | low polyreactivity
26 | QVQLVESGGGLVQAGGSLRLSCAASGITFNLYAMGWYRQAPGKEREFVAVITASGSSTYYADSVKGRFTISRDNAKNTVYLQMNSLKPEDTAVYYCAARWHIYYFSYVTSYAYGYWGQGTQVTVSS | high polyreactivity
27 | QVQLVESGGGLVQAGGSLRLSCAASGFIFGGYAMGWYRQAPGKERALVAAITRSGGSTYYADSVKGRFTISRDNAKNTVYLQMNSLKPEDTAVYYCAAERQPYRTSSYNYWGQGTQVTVSS | high polyreactivity
28 | QEQMQEGGGGLVQAGGSLRLICASSGYNFNGDWMGWNRQAPGKERELVATINYGATTNYADSVKGRFTISRDNAKNTVYLQMNSLKPEDTAVYYCAVGGHGAQLYVYWGQGTQVTVSN | high polyreactivity
29 | QVQLVESGGALVQAGGSLRLSCAASGSTFFKYGMGWYRQAPGKERELDATISSRGGNTSYADSVKGRFTISRDNAKNTVYLQMNSLKPEDTAVYYCNAGGDEPVYGSGYDYWGQGTQVTVSS | low polyreactivity
30 | QVQLVESGGCLVQAGGILRLSCAASGSIFVGYDMGWYRQAPGKERELVAAITGTVSTYYADSVKGRFTISRDNAKNTVYLQMNSLKPEDTAVYYCAAEFVYAYGDGGVYWSWMEYWGQGTQVTVSS | low polyreactivity
31 | QVQLVESGGGLVQAGGSLRLSCAASGRTFYPNVMGWYRQAPGKERELVAAITSGGSTYYADSVKGRFTISRDNAKNTVALEMNSQKPEDTAVYYCAVAYAGGGSRKYDYWGQGTQVTVSS | low polyreactivity
32 | QVQLVESGGGLVQAGGRLRLSCAASGITFRSYAMGWYRQAPGKESELVAAIRSGGSTSYADSVKGRFTISRDNAKNTVYLQMNSLKPEDTAVYYCAAGGYVPLPDMTFWKFGYWGQGTQVTVSS | low polyreactivity
